Test system: HEK293FT cells transfected with TF library
Assay: Screening of TF condensates based on fluorescent puncta
Format: cell-based
Conditions: Figure 1B numerical data; TF library screen, one value per transcriptional factor
How it was run: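 Condensate formation is scored as Alexa 488-labelled puncta after Flag- or GAL4-tag immunostaining of fixed HEK293FT cells expressing individual TFs, with a 12 h glucose-free or glucose-containing culture preceding fixation.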

Row | Molecule | Z score of condensed fraction
1 | SNW1 (protein, UniProt Q13573 2-536, looked up) SNW domain-containing protein …: ALTSFLPAPTQLSQDQLEAEEKARSQRSRQTSLVSSRREPPPYGYRKGWIPRLLEDFGDGGAFPEIHVAQYPLDMGRKKKMSNALAIQVDSEGKIKYDAIARQGQSKDKVIYSKYTDLVPKEVMNADDPDLQRPDEEAIKEITEKTRVALEKSVSQKVAAAMPVRAADKLAPAQYIRYTPSQQGVAFNSGAKQRVIRMVEMQKDPMEPPRFKINKKIPRGPPSPPAPVMHSPSRKMTVKEQQEWKIPPCISNWKNAKGYTIPLDKRLAADGRGLQTVHINENFAKLAEALYIADRKAREAVEMRAQVERKMAQKEKEKHEEKLREMAQKARERRAGIKTHVEKEDGEARERDEIRHDRRKERQHDRNLSRAAPDKRSKLQRNENRDISEVIALGVPNPRTSNEVQYDQRLFNQSKGMDSGFAGGEDEIYNVYDQAWRGGKDMAQSIYRPSKNLDKDMYGDDLEARIKTNRFVPDKEFSGSDRRQRGREGPVQFEEDPFGLDKFLEEAKQHGGSKRPSDSSRPKEHEHEGKKRRKE | -0.7186
2 | BCL11B (protein, UniProt Q9C0K0 1-894, looked up) B-cell lymphoma/leukemia 11B: MSRRKQGNPQHLSQRELITPEADHVEAAILEEDEGLEIEEPSGLGLMVGGPDPDLLTCGQCQMNFPLGDILVFIEHKRKQCGGSLGACYDKALDKDSPPPSSRSELRKVSEPVEIGIQVTPDEDDHLLSPTKGICPKQENIAGPCRPAQLPAVAPIAASSHPHSSVITSPLRALGALPPCLPLPCCSARPVSGDGTQGEGQTEAPFGCQCQLSGKDEPSSYICTTCKQPFNSAWFLLQHAQNTHGFRIYLEPGPASSSLTPRLTIPPPLGPEAVAQSPLMNFLGDSNPFNLLRMTGPILRDHPGFGEGRLPGTPPLFSPPPRHHLDPHRLSAEEMGLVAQHPSAFDRVMRLNPMAIDSPAMDFSRRLRELAGNSSTPPPVSPGRGNPMHRLLNPFQPSPKSPFLSTPPLPPMPPGGTPPPQPPAKSKSCEFCGKTFKFQSNLIVHRRSHTGEKPYKCQLCDHACSQASKLKRHMKTHMHKAGSLAGRSDDGLSAASSPEPGTSELAGEGLKAADGDFRHHESDPSLGHEPEEEDEEEEEEEEELLLENESRPESSFSMDSELSRNRENGGGGVPGVPGAGGGAAKALADEKALVLGKVMENVGLGALPQYGELLADKQKRGAFLKRAAGGGDAGDDDDAGGCGDAGAGGAVNGRGGGFAPGTEPFPGLFPRKPAPLPSPGLNSAAKRIKVEKDLELPPAALIPSENVYSQWLVGYAASRHFMKDPFLGFTDARQSPFATSSEHSSENGSLRFSTPPGDLLDGGLSGRSGTASGGSTPHLGGPGPGRPSSKEGRRSDTCEYCGKVFKNCSNLTVHRRSHTGERPYKCELCNYACAQSSKLTRHMKTHGQIGKEVYRCDICQMPFSVYSTLEKHMKKWHGEHLLTNDVKIEQAERS | -0.7987
3 | SMYD1 (protein, UniProt Q8NB12 1-490, looked up) Histone-lysine …: MTIGRMENVEVFTAEGKGRGLKATKEFWAADIIFAERAYSAVVFDSLVNFVCHTCFKRQEKLHRCGQCKFAHYCDRTCQKDAWLNHKNECSAIKRYGKVPNENIRLAARIMWRVEREGTGLTEGCLVSVDDLQNHVEHFGEEEQKDLRVDVDTFLQYWPPQSQQFSMQYISHIFGVINCNGFTLSDQRGLQAVGVGIFPNLGLVNHDCWPNCTVIFNNGNHEAVKSMFHTQMRIELRALGKISEGEELTVSYIDFLNVSEERKRQLKKQYYFDCTCEHCQKKLKDDLFLGVKDNPKPSQEVVKEMIQFSKDTLEKIDKARSEGLYHEVVKLCRECLEKQEPVFADTNIYMLRMLSIVSEVLSYLQAFEEASFYARRMVDGYMKLYHPNNAQLGMAVMRAGLTNWHAGNIEVGHGMICKAYAILLVTHGPSHPITKDLEAMRVQTEMELRMFRQNEFMYYKMREAALNNQPMQVMAEPSNEPSPALFHKKQ | -0.4905
4 | SNAPC4 (protein, UniProt Q5SXM2 1-1469, looked up) snRNA-activating protein …: MDVDAEREKITQEIKELERILDPGSSGSHVEISESSLESDSEADSLPSEDLDPADPPISEEERWGEASNDEDDPKDKTLPEDPETCLQLNMVYQEVIQEKLAEANLLLAQNREQQEELMRDLAGSKGTKVKDGKSLPPSTYMGHFMKPYFKDKVTGVGPPANEDTREKAAQGIKAFEELLVTKWKNWEKALLRKSVVSDRLQRLLQPKLLKLEYLHQKQSKVSSELERQALEKQGREAEKEIQDINQLPEEALLGNRLDSHDWEKISNINFEGSRSAEEIRKFWQNSEHPSINKQEWSREEEERLQAIAAAHGHLEWQKIAEELGTSRSAFQCLQKFQQHNKALKRKEWTEEEDRMLTQLVQEMRVGSHIPYRRIVYYMEGRDSMQLIYRWTKSLDPGLKKGYWAPEEDAKLLQAVAKYGEQDWFKIREEVPGRSDAQCRDRYLRRLHFSLKKGRWNLKEEEQLIELIEKYGVGHWAKIASELPHRSGSQCLSKWKIMMGKKQGLRRRRRRARHSVRWSSTSSSGSSSGSSGGSSSSSSSSSEEDEPEQAQAGEGDRALLSPQYMVPDMDLWVPARQSTSQPWRGGAGAWLGGPAASLSPPKGSSASQGGSKEASTTAAAPGEETSPVQVPARAHGPVPRSAQASHSADTRPAGAEKQALEGGRRLLTVPVETVLRVLRANTAARSCTQKEQLRQPPLPTSSPGVSSGDSVARSHVQWLRHRATQSGQRRWRHALHRRLLNRRLLLAVTPWVGDVVVPCTQASQRPAVVQTQADGLREQLQQARLASTPVFTLFTQLFHIDTAGCLEVVRERKALPPRLPQAGARDPPVHLLQASSSAQSTPGHLFPNVPAQEASKSASHKGSRRLASSRVERTLPQASLLASTGPRPKPKTVSELLQEKRLQEARAREATRGPVVLPSQLLVSSSVILQPPLPHTPHGRPAPGPTVLNVPLSGPGAPAAAKPGTSGSWQEAGTSAKDKRLSTMQALPLAPVFSEAEGTAPAASQAPALGPGQISVSCPESGLGQSQAPAASRKQGLPEAPPFLPAAPSPTPLPVQPLSLTHIGGPHVATSVPLPVTWVLTAQGLLPVPVPAVVSLPRPAGTPGPAGLLATLLPPLTETRAAQGPRAPALSSSWQPPANMNREPEPSCRTDTPAPPTHALSQSPAEADGSVAFVPGEAQVAREIPEPRTSSHADPPEAEPPWSGRLPAFGGVIPATEPRGTPGSPSGTQEPRGPLGLEKLPLRQPGPEKGALDLEKPPLPQPGPEKGALDLGLLSQEGEAATQQWLGGQRGVRVPLLGSRLPYQPPALCSLRALSGLLLHKKALEHKATSLVVGGEAERPAGALQASLGLVRGQLQDNPAYLLLRARFLAAFTLPALLATLAPQGVRTTLSVPSRVGSESEDEDLLSELELADRDGQPGCTTATCPIQGAPDSGKCSASSCLDTSNDPDDLDVLRTRHARHTRKRRRLV | -0.9989
5 | SNAI2 (protein, UniProt O43623 1-268, looked up) Zinc finger protein SNAI2: MPRSFLVKKHFNASKKPNYSELDTHTVIISPYLYESYSMPVIPQPEILSSGAYSPITVWTTAAPFHAQLPNGLSPLSGYSSSLGRVSPPPPSDTSSKDHSGSESPISDEEERLQSKLSDPHAIEAEKFQCNLCNKTYSTFSGLAKHKQLHCDAQSRKSFSCKYCDKEYVSLGALKMHIRTHTLPCVCKICGKAFSRPWLLQGHIRTHTGEKPFSCPHCNRAFADRSNLRAHLQTHSDVKKYQCKNCSKTFSRMSLLHKHEESGCCVAH | -0.6818
6 | SMARCAD1 (protein, UniProt Q9H4L7 1-1026, looked up) SWI/SNF-related …: MNLFNLDRFRFEKRNKIEEAPEATPQPSQPGPSSPISLSAEEENAEGEVSRANTPDSDITEKTEDSSVPETPDNERKASISYFKNQRGIQYIDLSSDSEDVVSPNCSNTVQEKTFNKDTVIIVSEPSEDEESQGLPTMARRNDDISELEDLSELEDLKDAKLQTLKELFPQRSDNDLLKLIESTSTMDGAIAAALLMFGDAGGGPRKRKLSSSSEPYEEDEFNDDQSIKKTRLDHGEESNESAESSSNWEKQESIVLKLQKEFPNFDKQELREVLKEHEWMYTEALESLKVFAEDQDMQYVSQSEVPNGKEVSSRSQNYPKNATKTKLKQKFSMKAQNGFNKKRKKNVFNPKRVVEDSEYDSGSDVGSSLDEDYSSGEEVMEDGYKGKILHFLQDASIGELTLIPQCSQKKAQKITELRPFNSWEALFTKMSKTNGLSEDLIWHCKTLIQERDVVIRLMNKCEDISNKLTKQVTMLTGNGGGWNIEQPSILNQSLSLKPYQKVGLNWLALVHKHGLNGILADEMGLGKTIQAIAFLAYLYQEGNNGPHLIVVPASTIDNWLREVNLWCPTLKVLCYYGSQEERKQIRFNIHSRYEDYNVIVTTYNCAISSSDDRSLFRRLKLNYAIFDEGHMLKNMGSIRYQHLMTINANNRLLLTGTPVQNNLLELMSLLNFVMPHMFSSSTSEIRRMFSSKTKSADEQSIYEKERIAHAKQIIKPFILRRVKEEVLKQLPPKKDRIELCAMSEKQEQLYLGLFNRLKKSINNLEKNTEMCNVMMQLRKMANHPLLHRQYYTAEKLKEMSQLMLKEPTHCEANPDLIFEDMEVMTDFELHVLCKQYRHINNFQLDMDLILDSGKFRVLGCILSELKQKGDRVVLFSQFTMMLDILEVLLKHHQHRYLRLDGKTQISERIHLIDEFNTDMDIFVFLLSTKAGGLGINLTSANVVILHDIDCNPYNDKQAEDRCHRVGQTKEVLVIKLISQGTIEESMLKINQQKLKLEQDMTTVDEGDEGSMPADIATLLKTSMGL | -0.654
7 | SND1 (protein, UniProt Q7KZF4 2-910, looked up) Staphylococcal nuclease …: ASSAQSGGSSGGPAVPTVQRGIIKMVLSGCAIIVRGQPRGGPPPERQINLSNIRAGNLARRAAATQPDAKDTPDEPWAFPAREFLRKKLIGKEVCFTIENKTPQGREYGMIYLGKDTNGENIAESLVAEGLATRREGMRANNPEQNRLSECEEQAKAAKKGMWSEGNGSHTIRDLKYTIENPRHFVDSHHQKPVNAIIEHVRDGSVVRALLLPDYYLVTVMLSGIKCPTFRREADGSETPEPFAAEAKFFTESRLLQRDVQIILESCHNQNILGTILHPNGNITELLLKEGFARCVDWSIAVYTRGAEKLRAAERFAKERRLRIWRDYVAPTANLDQKDKQFVAKVMQVLNADAIVVKLNSGDYKTIHLSSIRPPRLEGENTQDKNKKLRPLYDIPYMFEAREFLRKKLIGKKVNVTVDYIRPASPATETVPAFSERTCATVTIGGINIAEALVSKGLATVIRYRQDDDQRSSHYDELLAAEARAIKNGKGLHSKKEVPIHRVADISGDTQKAKQFLPFLQRAGRSEAVVEYVFSGSRLKLYLPKETCLITFLLAGIECPRGARNLPGLVQEGEPFSEEATLFTKELVLQREVEVEVESMDKAGNFIGWLHIDGANLSVLLVEHALSKVHFTAERSSYYKSLLSAEEAAKQKKEKVWAHYEEQPVEEVMPVLEEKERSASYKPVFVTEITDDLHFYVQDVETGTQLEKLMENMRNDIASHPPVEGSYAPRRGEFCIAKFVDGEWYRARVEKVESPAKIHVFYIDYGNREVLPSTRLGTLSPAFSTRVLPAQATEYAFAFIQVPQDDDARTDAVDSVVRDIQNTQCLLNVEHLSAGCPHVTLQFADSKGDVGLGLVKEGLVMVEVRKEKQFQKVITEYLNAQESAKSARLNLWRYGDFRADDADEFGYSR | 0.9266
